Data set [1] has as its target T1, PV-3C main protease (Poliovirus, UniProt P03300 1566-1748). Briefly: NMR (SOFAST-HMQC peak loss). Particulars: protein: recombinant; tags: SUMO tag cleaved by ULP-1; 15N-labeled for NMR.
For data set [2], the target named is T1, PV-3C main protease. Put plainly: NMR (SOFAST-HMQC CSP); 3C:RNA 1:0.5. Particulars: protein: recombinant; tags: SUMO tag cleaved by ULP-1; 15N-labeled for NMR.

T1 sequence (P03300 1566-1748): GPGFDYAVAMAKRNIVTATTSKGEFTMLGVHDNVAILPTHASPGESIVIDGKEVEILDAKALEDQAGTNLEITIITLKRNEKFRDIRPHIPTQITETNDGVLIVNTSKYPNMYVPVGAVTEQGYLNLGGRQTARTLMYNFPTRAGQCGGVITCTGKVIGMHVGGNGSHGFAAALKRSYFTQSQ

Turning to CAUACUGUUGUAGGGGAA (ssRNA) [RNA-2], in the data set with PV-3C main protease [1], the binding result was “binds”.
Take GGCGGCGUACUCCGG (ssRNA) [RNA-1]: the binding result in the data set with PV-3C main protease [2] is given as “binds”.

Values taken from paper PMC12656920.
